From the supplement of paper PMC9170038

Test system: MS2 coat protein
Experiment: apparent KD of MS2 coat protein; designed switch direction (-1 OFF switch, 1 ON switch): 1; higher = weaker reporter binding
Outline: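 Designed RNA switches with common flanks were made on Illumina chips by stalled E. coli RNA polymerase. Titration with SNAP-549-labelled MS2 coat protein doubled from 0.7 or 1.5 nM up to 3 µM. Apparent KD is each design's median over clusters after curve-fitting normalised fluorescence.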

[1] = input ligand: microRNA oligo, concentration not stated
[2] = Eterna round: R95, input ligand: FMN 200 uM
[3] = Eterna round: R95, input ligand: microRNA oligo, concentration not stated
[4] = Eterna round: R95, input ligand: none

Sequence	apparent KD of MS2 coat protein (input ligand: FMN 200 uM) [µM]	apparent KD of MS2 coat protein [1] [µM]	apparent KD of MS2 coat protein (input ligand: none) [µM]	apparent KD of MS2 coat protein [2] [µM]	apparent KD of MS2 coat protein [3] [µM]	apparent KD of MS2 coat protein [4] [µM]
AGGCCAUCAGGAGGAUAUGGCACCUUAUUGGUGCCAGAAGGUCUAACAUGAGGAUCACCCAUGUGGGUGUGGUCGAAAGACCAC [Fiskers NG1(ss) - 5] (Eterna round: R96, puzzle: Same State NG 1)	0.0999	0.0712	0.098	–	–	–
AGGCUGAGUCGAGGAUAUUAUGGAUCCUCUAAUACAUGAGGAUCACCCAUGUAAUUAAUUAUACAUGAGAAGGCGACUCAGCCU [SSNG2/12-A4] (Eterna round: R96, puzzle: Same State NG 2)	0.533	0.015	0.0347	–	–	–
AGGUAACAUGAGGAUCACCCAUGUAAGGUGAACGUAGGAUAUCGAAGAGGUAGAGUAGGACGAGAAGGACGAGGAA [JR_SS1_Sub091] (puzzle: Same State 1)	–	–	–	0.218	0.239	0.414
AGUAGUGUAACAUGAGGAUCACCCAUGUAAGAAGAUGUAACCUAGGAUAUGGAUGUUAUGUUUGACCAGAAGGAGGAUUGUUUA [JR_SSNG3_Sub040] (Eterna round: R96, puzzle: Same State NG 3)	0.0226	0.0321	0.0371	–	–	–
AGUAUACAUGAGGAUCACCCAUGUCAACGUAGUCGAGGAUAUGGGCAGCCGUGAGGCGUACCAGAAGGCGAAGAGA [Mat - Same State 1 - Mod of JL - D5] (puzzle: Same State 1)	–	–	–	0.0245	0.0505	0.0686
AGUCCAGCCAAAGCUGGACAAAAGCAUGUACAUGAGGAUCACCCAUGUCAUGUACAAGCUUUUUGCUCGUCUUAAUA [Mat - hsa-mir-208a - Mod of JL - D38] (puzzle: Sensor for hsa-mir-208a)	–	–	–	0.464	0.016	0.611
AGUCCAGCCUGAGCUGGACAAAAGCAUGUACAUGAGGAUCACCCAUGUCAUGUACAAGCUUUUUGCUCAAAAUAAUA [Mat - hsa-mir-208a - Mod of JL - D33] (puzzle: Sensor for hsa-mir-208a)	–	–	–	0.957	0.0148	0.607
AGUCCAGCCUGAGCUGGACAAAAGCAUGUACAUGAGGAUCACCCAUGUCAUGUACAAGCUUUUUGCUCGUCAUAAUA [Mat - hsa-mir-208a - Mod of JL - D28] (puzzle: Sensor for hsa-mir-208a)	–	–	–	0.653	0.0149	0.71
AGUCCAGCCUGAGCUGGACAAAAGCAUGUACAUGAGGAUCACCCAUGUCAUGUACAAGCUUUUUGCUCGUCUUAGAA [Mat - hsa-mir-208a - Mod of JL - D26] (puzzle: Sensor for hsa-mir-208a)	–	–	–	0.624	0.0167	0.756
AGUCCAGCCUGAGCUGGACAAAAGCAUGUACAUGAGGAUCACCCAUGUUCAUGUACAAGCUUUUUGCAAGUCAAAAG [Mat - hsa-mir-208a - Mod of JL - 75] (puzzle: Sensor for hsa-mir-208a)	–	–	–	0.337	0.0256	0.71
AGUCCAGCCUGAGCUGGACAAAAGCAUGUACAUGAGGAUCACCCAUGUUCAUGUACAAGCUUUUUGCUCGUCUUGUA [salish99_208a_r3_102x] (puzzle: Sensor for hsa-mir-208a)	–	–	–	0.367	0.0172	0.483
AGUCCAGCCUGAGCUGGACAAAAGUAUGUACAUGAGGAUCACCCAUGUCAUGUACAAGCUUUUUGCUCGUCUUAAAA [Zipper 46 - 14] (puzzle: Sensor for hsa-mir-208a)	–	–	–	0.287	0.0236	0.377
